For three substances, Kd results are on record in PMC9841416.

For orientation: Kd means the free concentration of one partner at which half of the binding sites on the other are occupied at equilibrium, for simple one-to-one binding. Read a low Kd as a tighter complex.

For the series, the target named is NTH-RNase E D346N D346N (Escherichia coli (K12, P21513-1 in alignment)) (UniProt P21513). The series is described as follows: EMSA. The settings on record: 25 mM bis-Tris propane pH 8.3, 100 mM KCl, 15 mM CaCl2, 0.1% (v/v) Triton X-100, 1 mM DTT, 20% (v/v) glycerol, 37 C 20 min; 1% agarose gel in 1x TBE. Background: Mobility shift assays separate free from complexed probe on a gel.
As for “metU-tRNA with 5' and 3' single-stranded regions”, the Kd worked out at 19 nM.
glnW-metU segment: the Kd was determined as 27 nM.
In turn, “glnW-tRNA (no flanking single-stranded regions)” gave a Kd of 56 nM.
